Assay results from EP4818204A1 (Nanjing Leads Biolabs Co., Ltd., dated 2026).

Legend:
human Activin B protein [1] = biological target: T1, human Activin B protein (human, UniProt P09529 293-407); experiment: ELISA, coated protein, antibody at 4 µg/mL
T1 construct: Bought; Activin B is by nature a dimer of inhibin beta B chains
T1 sequence (looked up): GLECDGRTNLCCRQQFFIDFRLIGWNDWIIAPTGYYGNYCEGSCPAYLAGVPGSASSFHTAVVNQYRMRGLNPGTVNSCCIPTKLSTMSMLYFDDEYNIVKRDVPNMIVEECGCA

human GDF3 protein [2] = biological target: T2, human GDF3 protein (human, UniProt Q9NR23 251-364, limits assumed); experiment: ELISA, coated protein, antibody at 4 µg/mL
T2 construct: Bought
T2 sequence (looked up): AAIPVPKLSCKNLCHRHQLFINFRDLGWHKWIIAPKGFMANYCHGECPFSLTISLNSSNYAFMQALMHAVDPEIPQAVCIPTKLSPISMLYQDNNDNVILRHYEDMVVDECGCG

human TGFβ1 protein [3] = biological target: T3, human TGFβ1 protein (human, UniProt P01137 279-390); experiment: ELISA, coated protein, antibody at 4 µg/mL
T3 construct: Bought

human BMP2 protein = biological target: T4, human BMP2 protein (human, UniProt P12643 283-396); experiment: ELISA, coated protein
T4 construct: Bought

human Activin A protein = biological target: T5, human Activin A protein (human, UniProt P08476 311-426); experiment: ELISA, coated protein
T5 construct: Bought; Activin A is by nature a dimer of inhibin beta A chains
T5 sequence (looked up): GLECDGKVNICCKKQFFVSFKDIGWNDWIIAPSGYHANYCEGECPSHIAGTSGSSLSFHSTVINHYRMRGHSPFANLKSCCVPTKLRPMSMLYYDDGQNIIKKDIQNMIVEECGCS

human GDF11 protein = biological target: T6, human GDF11 protein (human, UniProt O95390 299-407); experiment: ELISA, coated protein
T6 construct: Bought
T6 sequence (looked up): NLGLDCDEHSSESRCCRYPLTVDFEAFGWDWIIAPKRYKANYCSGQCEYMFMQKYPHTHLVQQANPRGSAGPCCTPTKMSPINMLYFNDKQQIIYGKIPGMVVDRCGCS

human GDF2 protein = biological target: T7, human GDF2 protein (human, UniProt Q9UK05 320-429); experiment: ELISA, coated protein
T7 construct: Bought
T7 sequence (looked up): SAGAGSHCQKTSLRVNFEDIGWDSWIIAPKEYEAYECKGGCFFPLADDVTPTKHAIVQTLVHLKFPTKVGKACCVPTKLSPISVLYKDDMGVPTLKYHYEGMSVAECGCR

human GDF1 protein = biological target: T8, human GDF1 protein (human, UniProt P27539 254-372, limits assumed); experiment: ELISA, coated protein
T8 construct: Bought
T8 sequence (looked up): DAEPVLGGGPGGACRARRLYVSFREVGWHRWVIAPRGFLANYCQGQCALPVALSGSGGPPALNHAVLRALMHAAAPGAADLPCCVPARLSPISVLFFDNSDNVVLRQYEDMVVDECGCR

human BMP4 protein = biological target: T9, human BMP4 protein (human, UniProt P12644 293-408); experiment: ELISA, coated protein
T9 construct: Bought
T9 sequence (looked up): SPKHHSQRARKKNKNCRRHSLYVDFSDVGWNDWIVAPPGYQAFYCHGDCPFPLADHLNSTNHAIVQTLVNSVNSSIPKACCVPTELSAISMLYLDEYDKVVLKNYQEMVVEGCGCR

human Activin B protein [4] = biological target: T1, human Activin B protein; experiment: ELISA, coated protein
human GDF3 protein [5] = biological target: T2, human GDF3 protein; experiment: ELISA, coated protein
human TGFβ1 protein [6] = biological target: T3, human TGFβ1 protein; experiment: ELISA, coated protein
human GFRα1 protein = biological target: T10, human GFRα1 protein (human, UniProt P56159 25-429, limits assumed); experiment: ELISA, coated protein
T10 construct: Bought
T10 sequence (looked up): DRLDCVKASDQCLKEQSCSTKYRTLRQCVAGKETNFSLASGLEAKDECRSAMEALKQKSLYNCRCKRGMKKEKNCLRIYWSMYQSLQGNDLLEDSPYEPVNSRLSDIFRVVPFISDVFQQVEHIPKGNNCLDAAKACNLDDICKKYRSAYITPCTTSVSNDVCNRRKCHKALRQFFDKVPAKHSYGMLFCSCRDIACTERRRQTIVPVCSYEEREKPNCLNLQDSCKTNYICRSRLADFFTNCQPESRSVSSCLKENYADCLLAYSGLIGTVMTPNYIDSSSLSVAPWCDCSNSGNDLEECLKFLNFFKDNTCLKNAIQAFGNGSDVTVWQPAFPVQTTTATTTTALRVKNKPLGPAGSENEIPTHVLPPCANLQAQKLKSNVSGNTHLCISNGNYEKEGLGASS

[7] = biological target: human GDF8 protein (human) (UniProt O14793); experiment: ELISA, coated protein, antibody at 4 µg/mL
[8] = biological target: human AMH protein (human) (UniProt P03971); experiment: ELISA, coated protein, antibody at 4 µg/mL
Human GDF15 protein = biological target: T11, Human GDF15 protein (human, UniProt Q99988 197-308); experiment: BLI (Fortebio Octet), antibody on AHC sensor, GDF15 as analyte, 1:1 model
T11 construct: Natural GDF15 is said to be a disulfide-linked homodimer; also called Human-GDF15-his
T11 sequence: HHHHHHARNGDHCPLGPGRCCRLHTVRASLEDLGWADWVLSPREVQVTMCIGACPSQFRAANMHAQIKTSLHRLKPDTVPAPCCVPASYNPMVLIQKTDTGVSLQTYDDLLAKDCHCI

[9] = biological target: T12, Cynomolgus monkey GDF15 protein (cynomolgus monkey, UniProt G7PWZ3 193-308); experiment: as above
T12 construct: Bought protein (Kactus Biosystems GDF-CE115); also called Cynomolgus GDF15 protein; Cynomolgus-GDF15
T12 sequence: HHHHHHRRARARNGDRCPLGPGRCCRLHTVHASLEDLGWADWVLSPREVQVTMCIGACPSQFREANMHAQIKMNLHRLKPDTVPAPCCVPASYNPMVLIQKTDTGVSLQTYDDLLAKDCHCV

Mouse GDF15 protein = biological target: T13, Mouse GDF15 protein (mouse, UniProt Q9Z0J7 189-303); experiment: as above
T13 sequence: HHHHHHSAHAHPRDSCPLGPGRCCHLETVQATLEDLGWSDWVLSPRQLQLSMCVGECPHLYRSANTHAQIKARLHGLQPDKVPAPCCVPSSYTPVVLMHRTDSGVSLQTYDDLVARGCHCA

T3 sequence (P01137 279-390 limits assumed): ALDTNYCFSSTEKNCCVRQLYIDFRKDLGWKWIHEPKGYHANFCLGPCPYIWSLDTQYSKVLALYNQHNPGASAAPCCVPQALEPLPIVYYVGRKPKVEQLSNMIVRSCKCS
T4 sequence (P12643 283-396 limits assumed): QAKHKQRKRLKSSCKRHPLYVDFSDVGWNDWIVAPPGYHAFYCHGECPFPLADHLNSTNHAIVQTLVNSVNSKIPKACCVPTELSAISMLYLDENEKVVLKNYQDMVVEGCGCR

| Binder | OD value (human Activin B protein [1]) | OD value (human GDF3 protein [2]) | OD value (human TGFβ1 protein [3]) | binding result (human BMP2 protein) | binding result (human Activin A protein) | binding result (human GDF11 protein) | binding result (human GDF2 protein) | binding result (human GDF1 protein) | binding result (human BMP4 protein) | binding result (human Activin B protein [4]) | binding result (human GDF3 protein [5]) | binding result (human TGFβ1 protein [6]) | binding result (human GFRα1 protein) | OD value (OD 450 nm-620 nm) [7] | OD value (OD 450 nm-620 nm) [8] | Kd (Human GDF15 protein) | koff (Human GDF15 protein) | kon (Human GDF15 protein) | Kd [9] | koff [9] | also measured |
| --- | --- | --- | --- | --- | --- | --- | --- | --- | --- | --- | --- | --- | --- | --- | --- | --- | --- | --- | --- | --- | --- |
| Hu21H6D2 (antibody, human IgG1, kappa, V domains shown, Humanized form of murine 21H6D2; human IgG1 constant region with L234A, L235A, G237A and kappa light chain constant region; also called hu21H6D2-IgG1-mut(L234A,L235A,G237A)) VH: QVQLVQSGAEVKKPGASVKVSCKASGYTFTGYIMNWVRQAPGQRLEWMGDIDPYYGDAKYNQKFKGKVTITVDKSASTAYMELSSLRSEDTAVYYCARRDYDHGSFAYWGQGTLVTVSS VL: EIVLTQSPDFQSVTPKEKVTITCSASSSVNYMHWYQQKPDQSPKRLIYDTSKLASGVPSRFSGSGSGTDYTLTINSLEAEDAATYYCQQWSSNPPTFGQGTKLEIKR | 0.0899 OD 450 nm-620 nm | 0.041 OD 450 nm-620 nm | 0.0426 OD 450 nm-620 nm | no binding (tested: 4 µg/mL) | no binding (tested: 4 µg/mL) | no binding (tested: 4 µg/mL) | no binding (tested: 4 µg/mL) | no binding (tested: 4 µg/mL) | no binding (tested: 4 µg/mL) | no binding (tested: 4 µg/mL) | no binding (tested: 4 µg/mL) | no binding (tested: 4 µg/mL) | no binding (tested: 4 µg/mL) | 0.0426 | 0.0537 | 0.0515 nM | 4.87e-05 s⁻¹ | 946000 M⁻¹ s⁻¹ | 0.231 nM | 6.13e-05 s⁻¹ | kon [9]: 265000 M⁻¹ s⁻¹; Kd (Mouse GDF15 protein): 10.6 nM; koff (Mouse GDF15 protein): 0.00116 s⁻¹; kon (Mouse GDF15 protein): 110000 M⁻¹ s⁻¹ |
| HuVHH43-3 (Fc fusion, also called huVHH43-IgG1-mut(L234A,L235A,G237A); VHH humanized anti-GDF15 antibody) heavy: QLQLVESGGGLVQPGGSLRLSCAASGHTYGMGWFRQAPGKAREIVSAISRSGSSTYYADSVKGRFTISRDNSKNTLYLQMNSLRAEDTAVYICGASTSALVPTTTGMYAYWGQGTRVTVSSEPKSSDKTHTCPPCPAPEAAGAPSVFLFPPKPKDTLMISRTPEVTCVVVDVSHEDPEVKFNWYVDGVEVHNAKTKPREEQYNSTYRVVSVLTVLHQDWLNGKEYKCKVSNKALPAPIEKTISKAKGQPREPQVYTLPPSREEMTKNQVSLTCLVKGFYPSDIAVEWESNGQPENNYKTTPPVLDSDGSFFLYSKLTVDKSRWQQGNVFSCSVMHEALHNHYTQKSLSLSPGK | 0.062 OD 450 nm-620 nm | 0.0406 OD 450 nm-620 nm | 0.055 OD 450 nm-620 nm | no binding (tested: 4 µg/mL) | no binding (tested: 4 µg/mL) | no binding (tested: 4 µg/mL) | no binding (tested: 4 µg/mL) | no binding (tested: 4 µg/mL) | no binding (tested: 4 µg/mL) | no binding (tested: 4 µg/mL) | no binding (tested: 4 µg/mL) | no binding (tested: 4 µg/mL) | no binding (tested: 4 µg/mL) | 0.0421 | 0.0485 | < 0.001 nM | < 1e-07 s⁻¹ | 573000 M⁻¹ s⁻¹ | < 0.001 nM | < 1e-07 s⁻¹ | kon [9]: 205000 M⁻¹ s⁻¹; Kd (Mouse GDF15 protein): 1.25 nM; koff (Mouse GDF15 protein): 6.58e-05 s⁻¹; kon (Mouse GDF15 protein): 52500 M⁻¹ s⁻¹ |
